Experimental data: US20110250203A1 (SYMPHOGEN A S, published 2011)

T1: Recombinant human CD5 extracellular domain (CD5-ECD) (human, UniProt P06127 25-372)
T1 construct: In-house protein made as CD5-ECD - TEV site - hGH fusion; CD5-ECD isolated by TEV cleavage and nickel column; also called CD5-ECD protein
T1 sequence: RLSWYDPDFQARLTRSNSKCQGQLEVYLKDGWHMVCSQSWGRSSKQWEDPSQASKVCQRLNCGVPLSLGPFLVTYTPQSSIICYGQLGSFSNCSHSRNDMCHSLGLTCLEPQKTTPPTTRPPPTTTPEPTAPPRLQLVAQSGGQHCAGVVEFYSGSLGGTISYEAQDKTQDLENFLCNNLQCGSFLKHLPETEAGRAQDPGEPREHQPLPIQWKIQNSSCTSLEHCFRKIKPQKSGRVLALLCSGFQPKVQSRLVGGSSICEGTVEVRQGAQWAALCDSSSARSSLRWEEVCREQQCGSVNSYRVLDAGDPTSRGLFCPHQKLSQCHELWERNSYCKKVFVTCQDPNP

B1: Anti-CD5 antibody 11 (4E24) (antibody, human IgG1, V domains shown)
VH: EVQLKESGAELVRPGGSVKISCKGSGYTFTNFAIHWVKQSHIKTLEWIGLISTSSGDVSYNQKFKDKATMTVDKSSSTAYMELARLTSEDSAIYYCARHYGANNYFDY
VL: EIVLTQSPTIMSASPGEQVTMTCRTNSSVSSSYLHWYQQKSGASPKLWIYGTSNLASGVPTRFSGSGSGTSYSLTISSVEAGDAATYFCQQYSGYPLT
notes: also called Ab11; Clone 11
B2: Anti-CD5 antibody 12 (4F10) (antibody, human IgG1, V domains shown)
VH: EVQLQESGAELVRPGVSVKISCKGSGYTFTNFAIHWVKQSHAKSLEWIGLISSNSGDVSYNQKFKGKATMTVDKSSSTAYMELARLTSEDSAIYYCARHYGAHNYFDY
VL: DIVLTQSPAIMSASPGEQVTMTCRATSSISSSYLHWYQQKSGASPKLWIYGTSNLASGVPTRFSGSGSGTSYSLTISSVEAEDAATYYCQQYSDYPLT
notes: also called Ab12; Clone 12
B3: Anti-CD5 antibody 1 (1D8) (antibody, human IgG1, V domains shown)
VH: EVQLQESGPELVKPEASVKISCKASGYSFTGYTMNWVKQSHGKNLEWIGLINPYNGGTTYNQKFKGKATLTVDTSSSTAFMELLSLTSEDSAVYYCARDYYGSSPDFDY
VL: DIVLTQSTSSLSASLGDRVTINCSASQGISNHLNWFQQKSDGTVKLLIYFTSSLHSGVPSRFSGSGSGTDYSLTISNLEPEDIAAYYCQQYSNLPYT
notes: also called Ab1; Clone 1
B4: Anti-CD5 antibody 18 (1E7) (antibody, human IgG1, V domains shown)
VH: QVQLKESGGGLVQPGGSLKLSCAASGFTFSNYGMSWVRQIPDKRLELVAAINSNGDITYDPDSVKGRFTISRDNANNSLFLQMRSLKSEDTAMYYCARGTAWFTYWGQGTLVT
VL: DIVLTQSPASLSASVGETVIITCRASENIYSYLVWYQQKQGKSPQLLVYNAKTLAEGVPSRFSGSGSGTQFSLKINSLQSEDFGSYSCQHHYGYPYT
notes: also called Ab18; Clone 18
B5: Anti-CD5 antibody 34 (5O24) (antibody, human IgG1, V domains shown)
VH: EVKLVESGAELVRSGASVKLSCAASGFNIKDYYIHWVKQRPEQGLEWIGWIDPENGRTEYAPKFQGKATMTADTSSNTAYLQLSSLTSEDTAVYYCNNGNYVRHYYFDY
VL: DVVLTQSPAILSASPGEKVTMTCRAISSVSYMHWYQQKPGSSPKPWIYATSNLASGVPARFSGSGSGTSYSLTISRVEAEDAATYYCQQWSSNPRT
notes: also called Ab34; Clone 34
B6: Anti-CD5 antibody 9 (6M4) (antibody, human IgG1, V domains shown)
VH: QVQLKESGPELEKPGASVKISCKASGYSFTAYSMNWVKQNNGMSLEWIGSIDPYYGDTKYAQKFKGKATLTVDKASSTAYLQLKSLTSEDSAVYYCARRMITTGDWYFDV
VL: HIVLTQSPSSLSASLGDRVTISCRASQDISTYLNWYQQKPDGTVKLLIFYTSRLHAGVPSRFSGSGSGTHHSLTISNLEQEDIATYFCQQGNSLPFT
notes: also called Ab9; Clone 9
B7: Anti-CD5 antibody 8 (8G8) (antibody, human IgG1, V domains shown)
VH: QVQLKESGPELEKPGASVRISCKASGYSFTAYNINWVTQRDGKSLEWIGSIDPYYGDTKYNQKFKDKATLTVDKSSSTAHMQVKSLTSEDSAIYYCARRMITMGDWYFDV
VL: EIVLTQSPSSLSASLGDRVTISCRASQDISNYLNWYQRKPDGTVKLLIYYTSRLQSGVPSRFSGSGSGSEYSLTISNLDQEDIATYFCQQGDALPWT
notes: also called Ab8; Clone 8
B8: Anti-CD5 antibody 17 (7H7) (antibody, human IgG1, V domains shown)
VH: EVQLVESGPGLVQPSQSLSITCTVSGFSLTNYDVHWVRQSPGKGLEWLGVIWNYGNTDYNAAFISRLSIRKDSSKSQVFFTMSSLQTPDTAIYYCARNHGDGYYNWYFDV
VL: NIVLTQSPSSLSESLGGKVTITCKASQDINKYIAWYQYKPGKGPRLLIHYTSTLQPGIPSRFSGSGSGRDYSFSISNLEPEDIATYYCLQYDNLWT
notes: also called Ab17; Clone 17
B9: Anti-CD5 antibody 14 (7P9) (antibody, human IgG1, V domains shown)
VH: EVQLKESGAELVKPGASVKLSCTASGFNIKDTYMHWVKQRPEQGLEWIGRIDPANGNTKYDPKFQGKATITADTSSNTAYLQLSSLTSEDTAVYYCAREENYYGTYYFDY
VL: NIVLTQSPASLAASVGETVTITCRASENIYYNLAWYQQKQGKSPQLLIYNANSLEDGVPSRFSGSGSGTQYSMKINSMQPEDTATYFCKQVYDVPFT
notes: also called Ab14; Clone 14
B10: Anti-CD5 antibody 29 (8E15) (antibody, human IgG1, V domains shown)
VH: QVQLKESGADLVKPGASVKLSCTASGFNIKDTYMNWVKERPEQGLEWIGRIDPANGNTKYDPKFQGKATITADTSSNTGYLQLSSLTSEDTAVYYCASYDPDY
VL: DIVLTQSPASLAASVGETVTITCRASENIYYNLAWYQQKQGKSPQLLIYNANSLEGGVPSRFSGSGSGTQYSMKINSMQPEDTATYFCKQAYDVPWT
notes: also called Ab29; Clone 29
B11: Anti-CD5 antibody 15 (8E24) (antibody, human IgG1, V domains shown)
VH: QVTLKESGAELVRPGASVKLSCKASGYSFTSYWMNWVKQRPGQGLEWIGMIHPSDSETRLNQKFKDKATLTVDKSSSTAYMQLSSPTSEDSAVYYCARWGDHDDAMDF
VL: DIVLTQSPASLSASVGESVTITCRPSENIYGYFAWYQQRQGKSPQLLVYNAKTLAEGVPSRFSGSGSGTHFSLKINSLQPEDFGTYYCQHHYGTPFT
notes: also called Ab15; Clone 15
B12: Anti-CD5 antibody 23 (2H11) (antibody, V domains shown)
VH: EVQLQQSGPELVKPGTSVKISCKASGYTFTDYYINWVKQKPGQGLEWIGWIYPGGGNTRYIERFKGKATLTVDTSSSTAYMQLSSLTSEDTAVYFCARNGYWYFDV
VL: DIVLTQSPSSLTVTAGEKVTMSCKSSQSLLNQKNYLTWYQQKTGQPPKLLIYWASTRESGVPDRFTGSGSGTDFTLTISSVQAEDLAVYYCQNDYDYPYT
notes: also called Ab23; Clone 23
B13: Anti-CD5 antibody 31 (3P16) (antibody, human IgG1, V domains shown)
VH: EVQLKESGPELKKPGETVKISCMTSGYMFTNHGMNWVKQAPGKGLKWMGWINTYTGEPTYGDGFKGRFVFSLETSASTAYLQINNLKNEDTATYFCARRVATYFDV
VL: NIVLTQSPAILSVSPGERVSFSCRASQRIGTSMNWYQQRTNGSPRLLIKSASESISGIPSRFSGSGSGTDFTLSINSVESDDVADYYCQQSNSWPLT
notes: also called Ab31; Clone 31
B14: Anti-CD5 antibody 32 (4F3) (antibody, human IgG1, V domains shown)
VH: EVKLVESGPELKKPGETVKISCKASGYMFTNYGMNWVKQAPGKGLKWMGWINTYTGEPTYVEDFKGRFAFSLETSANTAYLQINNLKNEDTATYFCTRRSHITLDY
VL: DIVLTQSPVILSVSPGERVSLSCRASQSIGTSINWYQQRTDGSPRLLIKSASESMSGIPSRFSGSGSGTDFTLSITSVESEDIADYYCQQSNSWPLT
notes: also called Ab32; Clone 32

Molecular target: T1, Recombinant human CD5 extracellular …
Assay: SPR (Biacore 2000), antibody captured by anti-human Fc, CD5-ECD in solution, 1:1 fit;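 also: CM5 chip, binding curves at four CD5-ECD concentrations fitted globally, with the signal of a non-CD5-binding control antibody subtracted as reference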
Protocol: SPR analysis was performed on a Biacore 2000 machine containing four flow cells. A CM5 Biacore chip was conjugated with 8.000 Resonance units (Ru) polyclonal anti-human IgG Fc-specific antibody to flow cells 1-4 according to the manufacturer's instructions. Each anti-CD5 antibody was determined for binding to four different concentrations of CD5-ECD (concentrations for the four cycles are shown below) before the affinity was calculated. The non-CD5 binding antibody, Erbitux served as a negative control and was subtracted from the values obtained with the anti-CD5 specific antibodies. […] Subsequently, all flow cells were washed and after waiting 500 s, 250 μl of CD5-ECD 100 nM or 200 nM (Cycle 1) was injected in Flow cells 1-4. After waiting 1000 s, 30 μl H3PO4 was injected using a flow rate of 60 μl/min. The antibody/antigen complex was then stripped with a low pH acid wash (30 sec. contact time with 100 mM H3PO4). […] Four new cycles were then repeated until all the anti-CD5 antibody clones were tested for binding to CD5 in four different concentrations. The association rate constant (ka) and dissociation constant (kd) were evaluated globally by fitting the four binding curves to predefined 1:1 (Langmuir) association and dissociation models with BIAevaluation 4.1 software (Biacore), Table 13.

**Q.** How did the Kd turn out when B1 was run?
**A.** The Kd was 0.315 nM.

**Q.** And the koff?
**A.** Its koff is 2.2e-05 s⁻¹.

**Q.** And the kon?
**A.** The kon was 69900 M⁻¹ s⁻¹.

**Q.** With B2 as the binder, how does the Kd read?
**A.** Its Kd is 1.18 nM.

**Q.** And the koff?
**A.** The koff was 0.000115 s⁻¹.

**Q.** And the kon?
**A.** The kon was 97000 M⁻¹ s⁻¹.

**Q.** What does the source list for B3?
**A.** Kd: 5.19 nM; koff: 0.000557 s⁻¹; kon: 107000 M⁻¹ s⁻¹

**Q.** Which Kd does the source give for B4 here?
**A.** The Kd was 0.205 nM.

**Q.** And the koff?
**A.** The koff was 3.27e-05 s⁻¹.

**Q.** And the kon?
**A.** Its kon is 160000 M⁻¹ s⁻¹.

**Q.** B5 was tested. Which Kd did it give?
**A.** Its Kd is 61.3 nM.

**Q.** What about the koff of the same binder?
**A.** Its koff is 0.00084 s⁻¹.

**Q.** And the kon?
**A.** Its kon is 13700 M⁻¹ s⁻¹.

**Q.** For B6, which Kd is on record?
**A.** The Kd was 4.35 nM.

**Q.** And the koff?
**A.** Its koff is 6.17e-05 s⁻¹.

**Q.** What about the kon of the same binder?
**A.** Its kon is 14200 M⁻¹ s⁻¹.

**Q.** With B7 as the binder, how does the Kd read?
**A.** The Kd was 0.37 nM.

**Q.** What about the koff of the same binder?
**A.** Its koff is 9.81e-06 s⁻¹.

**Q.** What about the kon of the same binder?
**A.** Its kon is 26500 M⁻¹ s⁻¹.

**Q.** How did the Kd turn out when B8 was run?
**A.** Its Kd is 0.164 nM.

**Q.** What about the koff of the same binder?
**A.** Its koff is 8.45e-05 s⁻¹.

**Q.** And the kon?
**A.** The kon was 515000 M⁻¹ s⁻¹.

**Q.** For B9, which Kd is on record?
**A.** Its Kd is 5.6 nM.

**Q.** And the koff?
**A.** The koff was 0.0018 s⁻¹.

**Q.** What about the kon of the same binder?
**A.** The kon was 321000 M⁻¹ s⁻¹.

**Q.** B10 was tested. Which Kd did it give?
**A.** The Kd was 2.09 nM.

**Q.** What about the koff of the same binder?
**A.** The koff was 0.00137 s⁻¹.

**Q.** And the kon?
**A.** Its kon is 655000 M⁻¹ s⁻¹.

**Q.** Which results are given for B11?
**A.** Kd: 23.4 nM; koff: 0.00127 s⁻¹; kon: 54400 M⁻¹ s⁻¹

**Q.** What does the source list for B12?
**A.** Kd: 4.79 nM; koff: 0.000105 s⁻¹; kon: 21900 M⁻¹ s⁻¹

**Q.** What does the source list for B13?
**A.** Kd: 8.85 nM; koff: 0.000803 s⁻¹; kon: 90700 M⁻¹ s⁻¹

**Q.** For B14, which Kd is on record?
**A.** The Kd was 0.903 nM.

**Q.** And the koff?
**A.** Its koff is 0.000116 s⁻¹.

**Q.** What about the kon of the same binder?
**A.** The kon was 128000 M⁻¹ s⁻¹.
